Experimental findings from patent publication US20240116997A1 (BRIGHT PEAK THERAPEUTICS, published 2024) are described below.

Numbering of substitutions follows the chain as printed. Names and notes keep the numbering of the source. Where two headings read alike, the source gives them in different places.

Common to all, as to experiment: cell-based or functional assay
In experiment [1] the target is T1, IL-18 receptor (IL-18Rαβ) on cells (UniProt Q13478 19-541; O95256 20-599, limits assumed).
T1 sequence (looked up) 1: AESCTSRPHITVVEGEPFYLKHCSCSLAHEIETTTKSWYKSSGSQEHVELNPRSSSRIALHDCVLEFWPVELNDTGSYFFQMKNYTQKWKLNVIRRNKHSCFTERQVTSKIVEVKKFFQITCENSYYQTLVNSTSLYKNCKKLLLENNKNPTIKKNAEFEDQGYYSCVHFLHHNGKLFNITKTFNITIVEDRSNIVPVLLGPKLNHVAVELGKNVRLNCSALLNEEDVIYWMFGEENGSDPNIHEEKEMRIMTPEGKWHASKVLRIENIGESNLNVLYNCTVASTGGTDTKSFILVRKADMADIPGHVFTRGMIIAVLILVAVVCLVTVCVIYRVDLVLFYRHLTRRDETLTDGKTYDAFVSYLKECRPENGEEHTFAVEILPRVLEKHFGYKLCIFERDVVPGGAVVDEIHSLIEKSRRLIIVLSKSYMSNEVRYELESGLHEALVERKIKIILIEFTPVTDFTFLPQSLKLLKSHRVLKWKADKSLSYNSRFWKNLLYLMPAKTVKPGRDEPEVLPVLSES
T1 sequence (looked up) 2: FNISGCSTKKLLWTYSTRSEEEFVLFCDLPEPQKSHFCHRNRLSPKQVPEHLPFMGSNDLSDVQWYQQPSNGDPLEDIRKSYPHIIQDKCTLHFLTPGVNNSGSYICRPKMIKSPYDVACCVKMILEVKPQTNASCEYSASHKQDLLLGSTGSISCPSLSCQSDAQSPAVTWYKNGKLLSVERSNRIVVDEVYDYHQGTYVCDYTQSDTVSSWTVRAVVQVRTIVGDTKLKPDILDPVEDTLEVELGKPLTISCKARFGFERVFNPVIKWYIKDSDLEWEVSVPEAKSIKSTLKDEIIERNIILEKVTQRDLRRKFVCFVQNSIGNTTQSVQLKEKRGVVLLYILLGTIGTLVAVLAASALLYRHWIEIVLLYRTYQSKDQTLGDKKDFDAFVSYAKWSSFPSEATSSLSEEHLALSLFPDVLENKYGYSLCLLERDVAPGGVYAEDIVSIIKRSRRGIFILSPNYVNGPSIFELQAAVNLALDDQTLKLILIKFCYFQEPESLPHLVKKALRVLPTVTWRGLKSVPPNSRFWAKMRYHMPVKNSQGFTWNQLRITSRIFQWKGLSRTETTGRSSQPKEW

Experiment [2] deals with T1, IL-18 receptor (IL-18Rαβ) on cells. This is another data set of the same source.
The target is the same in experiment [3]. The source holds these as a separate data set.
Experiment [4] has the same target. The source holds these as a separate data set.
Experiment [5] has the same target. The source holds these as a separate data set.

B1: C191 (C086-PLGLAG linker-IL-18Rα D3-His6; SEQ ID NO: 76) (ligand)
chain: YFGKLKSKLSIIRNLNDQVLFIDQGNRPLFEDMTDSDARDNAPRTIFIISMYADSQPRGMAVAISVKCEKISTLSAENKIISFKEMNPPDNIKDTKSDIIFFQRSVPGHDNKMQFESSSYEGYFLAAEKERDLFKLILKKEDELGDRSIMFTVQNESGGPLGLAGGSNIVPVLLGPKLNHVAVELGKNVRLNCSALLNEEDVIYWMFGEENGSDPNIHEEKEMRIMTPEGKWHASKVLRIENIGESNLNVLYNCTVASTGGTDTKSFILVRKADHHHHHH
B1: the “EC50 (read off the curve), HEK-Blue IL18R reporter” value (shortened to “EC50 (read off the curve)”) in experiment [1] was ~2 pM. In experiment [2], the “Fold potency loss vs C086” value is 48 fold and the “HEK-blue EC50” value was 2020 pM.

B2: C086 (SEQ ID NO: 30; E6K, V11I, C38A, K53A, T63A, C76A, C127A) (ligand)
chain: YFGKLKSKLSIIRNLNDQVLFIDQGNRPLFEDMTDSDARDNAPRTIFIISMYADSQPRGMAVAISVKCEKISTLSAENKIISFKEMNPPDNIKDTKSDIIFFQRSVPGHDNKMQFESSSYEGYFLAAEKERDLFKLILKKEDELGDRSIMFTVQNED
For B2, the “EC50 (nM), IFNγ induction, NK-92 cells” value in experiment [3] is 0.026 nM. Moreover, the “EC50 (read off the curve)” value in experiment [1] and in experiment [4] was ~0.04 pM in each case. Also, in experiment [5], the “EC50 (pM), HEK-Blue IL-18R reporter assay” value came to 0.034 pM. The “HEK-blue EC50” value in experiment [2] was determined as 40 pM.

B3: C172 (C086-LinkerX-IL-18Rα D3-His6; SEQ ID NO: 73) (ligand)
chain: YFGKLKSKLSIIRNLNDQVLFIDQGNRPLFEDMTDSDARDNAPRTIFIISMYADSQPRGMAVAISVKCEKISTLSAENKIISFKEMNPPDNIKDTKSDIIFFQRSVPGHDNKMQFESSSYEGYFLAAEKERDLFKLILKKEDELGDRSIMFTVQNESGGPGPAGMKGLPGSNIVPVLLGPKLNHVAVELGKNVRLNCSALLNEEDVIYWMFGEENGSDPNIHEEKEMRIMTPEGKWHASKVLRIENIGESNLNVLYNCTVASTGGTDTKSFILVRKADHHHHHH
Turning to B3, the “EC50 (read off the curve)” value in experiment [1] was ~1 pM. Moreover, in experiment [2], the “Fold potency loss vs C086” value is 26 fold and the “HEK-blue EC50” value came to 1090 pM.

B4: C189 (C086-LinkerX-IL-18Rα D3 without glycosylation sites-His6; SEQ ID NO: 75) (ligand)
chain: B3 chain with N196D, N215D, N257D
For the molecule B4, in experiment [1], the “EC50 (read off the curve)” value was ~0.4 pM. In experiment [2], the “Fold potency loss vs C086” value worked out at 10 fold and the “HEK-blue EC50” value was 430 pM.
